The source of these data is US9217013B2, “Treatment of amyloidoses using myelin basic protein and fragments thereof” (The Research Foundation for the State University of New York, priority 2008, dated 2015).

This data set relates to Aβ. Description: Recombinant MBP regions tested for ability to bind Aβ and inhibit fibrillogenesis. The settings on record: Aβ form not stated. Format: binding. As to the method:
Using recombinant methodology to express and purify regions of the 18.5 kDa human MBP protein and test their abilities to bind Aβ and inhibit fibrillogenesis, cDNAs were prepared for the following regions of MBP shown in FIG. 3. The cDNAs for MBP fragments were cloned into pTYB11 plasmids containing an ampr gene and transformed into competent E. coli BL21 DE3 cells. Expression of cDNAs in this vector results in a fusion protein containing a chitin binding domain (CBD) as well as a self-cleavable intein protein from S. cerevisiae. CBD-Intein-MBP fusion proteins were captured on chitin beads from the resulting cell lysates. MBP protein fragments were eluted by inducing the cleavage between the C-terminus of the intein and the N-terminus of MBP by exposure to dithiothreitol. […] MBP was further purified by cation exchange chromatography on CM52 resin, resulting in a >95% pure protein preparations. Each of the four MBP fragments were tested for binding to Dutch/Iowa Aβ40 and wild-type Aβ42 by surface plasmon resonance (FIG. 4).
Such a motif, KRGX1X2X3X4X5X6HP (SEQ ID NO:1), was found in MBP 33-64 and in AβPP 54-64. Specifically, the motif in MBP spans residues 54-64. […]

On to “MBP 50-64: MBP residues 50-64, RGAPKRGSGKDSHHP (SEQ ID NO: 51)”, for which the “abilities to bind Aβ and inhibit fibrillogenesis” value is given as “carries all the binding activity”.
